This is an account of results in PMC8287830, “(S)-3-Hydroxybutyryl-CoA Dehydrogenase From the Autotrophic 3-Hydroxypropionate/4-Hydroxybutyrate Cycle in Nitrosopumilus maritimus” (Frontiers in Microbiology, 2021).

Substrate in series [1]: CC(=O)CC(=O)SCCNC(=O)CCNC(=O)[C@H](O)C(C)(C)COP(=O)(O)OP(=O)(O)OC[C@H]1O[C@@H](n2cnc3c(N)ncnc32)[C@H](O)[C@@H]1OP(=O)(O)O
In words: purified protein. As to conditions: 0.5 mM NADH, 100 mM Tris-HCl pH 7.8, 30°C, reverse reaction, monomeric enzyme. Format: biochemical, Nitrosopumilus maritimus.

Substrate in series [2]: NC(=O)c1ccc[n+]([C@@H]2O[C@H](COP(=O)(O)OP(=O)(O)OC[C@H]3O[C@@H](n4cnc5c(N)ncnc54)[C@H](O)[C@@H]3O)[C@@H](O)[C@H]2O)c1
Kind of series: purified protein. Format: biochemical, Nitrosopumilus maritimus. As to conditions: 0.2 mM (S)-3-hydroxybutyryl-CoA, 100 mM Tris-HCl pH 7.8, 30°C, forward reaction, monomeric enzyme.

Substrate in series [3]: NC(=O)C1=CN([C@@H]2O[C@H](COP(=O)(O)OP(=O)(O)OC[C@H]3O[C@@H](n4cnc5c(N)ncnc54)[C@H](O)[C@@H]3O)[C@@H](O)[C@H]2O)C=CC1
Kind of series: purified protein. The class given is biochemical, Nitrosopumilus maritimus. The conditions noted are these: 0.2 mM acetoacetyl-CoA, 100 mM Tris-HCl pH 7.8, 30°C, reverse reaction, monomeric enzyme.

Substrate in series [4]: C[C@H](O)CC(=O)SCCNC(=O)CCNC(=O)[C@H](O)C(C)(C)COP(=O)(O)OP(=O)(O)OC[C@H]1O[C@@H](n2cnc3c(N)ncnc32)[C@H](O)[C@@H]1OP(=O)(O)O
Kind of series: purified protein. Format: biochemical, Nitrosopumilus maritimus. The conditions noted are these: 2 mM NAD, 100 mM Tris-HCl pH 7.8, 30°C, forward reaction, monomeric enzyme.

Substrate in series [5]: NC(=O)c1ccc[n+]([C@@H]2O[C@H](COP(=O)(O)OP(=O)(O)OC[C@H]3O[C@@H](n4cnc5c(N)ncnc54)[C@H](OP(=O)(O)O)[C@@H]3O)[C@@H](O)[C@H]2O)c1
Kind of series: purified protein. The class given is biochemical, Nitrosopumilus maritimus. As to conditions: 0.2 mM (S)-3-hydroxybutyryl-CoA, 100 mM Tris-HCl pH 7.8, 30°C, forward reaction, monomeric enzyme.

Series [6] deals with the molecule itself. In words: SEC; Superdex 200 Increase (24 ml), 0.75 ml/min, 20 mM Tris-HCl pH 7.8, 150 mM KCl; native mass from a standard curve (apoferritin, alcohol dehydrogenase, BSA, carbonic anhydrase).

What is called Km is the substrate concentration at which the rate is half of its maximum. By Vmax is commonly meant the top rate of the reaction or transport when substrate is in excess. What is called kcat is the number of substrate molecules converted per active site and unit of time at saturation. One may read the kcat/Km as the second-order rate constant that governs catalysis at low substrate concentration. As usually defined, the stoichiometry N is a count of units in the complex or per binding partner.

B1: (S)-3-hydroxybutyryl-CoA dehydrogenase Nmar_1028 (enzyme, Nitrosopumilus maritimus SCM1, UniProt A9A3J2 1-379, looked up)
chain: MAVKNITILGSGVMGHGIAQVSATAGYNVVLRDIEQGFLDKAMEKIRWSLDKLVSKEKISKEEGDSIFGRITPVVDLKEAVKDAELVIEVVPEIMDLKKKVYAELDEVAAPEVIFASNTSTLPITEIANTTSRPDKFIGIHFFNPPQLMKLVEVIPGEKTSQEITDLTKDYVKSVNKQAVLCRKDVPGFIINRLFIPMVHEACYAKDRTGATLEEIDSAVKFNLGFPMGIFELADFTGMDVIHKATVEMHLRDKKVINPHPTVEKMFDEKKLGQKSGEGYYKYSDDKYERVELSQELAQKFNPIQLVANILNNAAWLVTNGASDIEEIEKAAQLGLGLKKPLFETAKEIGIKNIVDELNKLAEEHGEFYKPDPLLTSMQ
notes: (S)-3-hydroxybutyryl-CoA dehydrogenase Nmar_1028 of Nitrosopumilus maritimus strain SCM1; gene amplified from genomic DNA from the initiation codon to after the stop codon; predicted size 44.8 kDa; No removal of the His10 tag is described; also called HBDH; source: E. coli Rosetta 2 (DE3), purified (Ni-NTA)
Turning to B1, the Michaelis constant (Km) in “purified protein [1]” worked out at 26 ± 4 µM; in “purified protein [2]” it was 100 ± 20 µM; in “purified protein [3]”, 16 ± 6 µM; in the series “purified protein [4]” it was 19 ± 2 µM; in “purified protein [5]”, 2920 ± 630 µM. In addition, the maximum rate (Vmax) in the series “purified protein [1]” stood at 145 µmol/min/mg; in “purified protein [2]” it was 84.4 µmol/min/mg; in the series “purified protein [3]”, 113 µmol/min/mg; in the series “purified protein [4]”, 98.6 µmol/min/mg; in the series “purified protein [5]”, 10.1 µmol/min/mg. Further, the kcat in “purified protein [1]” came out at 108 s⁻¹; in “purified protein [4]” it was 74 s⁻¹. The specificity constant (kcat/Km) in the series “purified protein [1]” worked out at 4.04e+06 M⁻¹ s⁻¹; in the series “purified protein [2]” it was 630000 M⁻¹ s⁻¹; in “purified protein [3]”, 5.27e+06 M⁻¹ s⁻¹; in “purified protein [4]”, 3.88e+06 M⁻¹ s⁻¹; in “purified protein [5]” it was 3000 M⁻¹ s⁻¹. Further, the “stoichiometry N” value in series [6] was determined as 2.
